Data as given in patent publication US20140363808, “[…] […] METHOD BASED ON […] WITHOUT TARGET IMMOBILIZATION AND THE […] OBTAINED FROM THE METHOD” (KOREA UNIVERSITY RESEARCH AND BUSINESS FOUNDATION, published 2014).

Legend:
Conditions in all cases: tags: AdipoGen AG-40A-0031; chain copies: 2
[1] = molecular target: T1, Nampt (nicotinamide phosphoribosyltransferase) (UniProt P43490 P43490:1-491); experiment: SPR; 200 nM Nampt
Procedure: An experiment showing that 15 kinds of aptamers strongly bound to Nampt were not bound to other blood proteins but specifically bound to Nampt only was carried out by immobilizing aptamers onto a gold chip with a surface […] resonance device (SPR).
Firstly, a carboxyl group (—COOH) was formed on a surface of a gold chip with 50 mM of 3,3′-dithiodipropionic acid, and a self-assembly monolayer was formed with EDC/NHS. Then, streptavidin was immobilized thereon, and each aptamer bound to biotin was immobilized. Herein, 200 nM Nampt and the controls, i.e., RBP4, adiponectin, resistin, vaspin, and HAS, were reacted for 30 minutes in respective buffer solutions (100 mM NaCl, 2 mM MgCl₂, 5 mM KCl, 1 mM CaCl₂, and 20 mM Tris-Cl buffer solution containing 0.02% Tween 20, pH 7.6), and non-bound proteins were washed off with the same buffer solutions.

[2] = molecular target: T1, Nampt (nicotinamide …); experiment: SPR; aptamer immobilized; 100 mM NaCl, 2 mM MgCl2, 5 mM KCl, 1 mM CaCl2, 20 mM Tris, 0.02% Tween 20, pH 7.6
Procedure: (§1) Aptamers G35, G40, and G55 had the highest specificity and binding force among the 15 kinds of aptamers specifically bound to Nampt and produced in Example 1. Binding of these aptamers with respect to Nampt was analyzed. The aptamers were immobilized onto a gold chip in the same manner as described above, and Nampt at various concentrations of 20 nM to 400 nM was reacted for 30 minutes in buffer solutions (100 mM NaCl, 2 mM MgCl₂, 5 mM KCl, 1 mM CaCl₂, and 20 mM Tris-Cl buffer solution containing 0.02% Tween 20, pH 7.6). In order to obtain a dissociation constant, each reaction level was plotted by a nonlinear regression method and a single site saturation ligand binding method with Graphpad Prism 5.0. In this case, the equation Y=Bₘₐₓ*X̂h/(Kd̂h+X̂h) was used (y represents a saturation degree, Bₘₐₓ represents a maximal binding site, Kd represents a dissociation constant, X represents non-bound Nampt, and h represents a hill slope constant).

[3] = molecular target: T1, Nampt (nicotinamide …); experiment: SPR; aptamer immobilized; same buffer pH 7.6
Procedure: as §1

T1 sequence (P43490 whole entry, one chain of several): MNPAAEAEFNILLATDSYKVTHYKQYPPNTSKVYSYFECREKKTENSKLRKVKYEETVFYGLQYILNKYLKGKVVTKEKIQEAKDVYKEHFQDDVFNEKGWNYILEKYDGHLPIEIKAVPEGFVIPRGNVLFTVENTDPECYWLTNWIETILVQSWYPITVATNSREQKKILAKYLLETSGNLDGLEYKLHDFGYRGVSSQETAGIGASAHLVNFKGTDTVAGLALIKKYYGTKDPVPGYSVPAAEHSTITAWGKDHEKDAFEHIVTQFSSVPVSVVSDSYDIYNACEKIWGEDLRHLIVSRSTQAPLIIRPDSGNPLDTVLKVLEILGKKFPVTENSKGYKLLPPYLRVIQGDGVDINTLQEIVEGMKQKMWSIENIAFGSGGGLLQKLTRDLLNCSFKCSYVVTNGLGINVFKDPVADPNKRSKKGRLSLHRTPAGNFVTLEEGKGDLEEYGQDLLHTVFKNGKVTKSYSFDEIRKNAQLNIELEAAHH

B1: G26 (ssDNA)
DNA: CGTACGGAATTCGCTAGCATCGGGTGCAGAGTCGGAGCTAACGGCAGCGGATCCGAGCTCCACGTG
B1: binds [1].

B2: G15 (ssDNA)
DNA: CGTACGGAATTCGCTAGCAGCCGGCGGGTGCTCAATGTTGGGGGTTGGGATCCGAGCTCCACGTG
B2: binds [1].

B3: G9 (ssDNA)
DNA: CGTACGGAATTCGCTAGCGGGGATGGGCCGCTCTGCAGAATGTTCTGTGGATCCGAGCTCCACGTG
B3: binds [1].

B4: G12 (ssDNA)
DNA: CGTACGGAATTCGCTAGCGGGTGCCGTGGCACGAGGCCGTGGTCCAGGGGATCCGAGCTCCACGTG
B4: binds [1].

B5: G21 (ssDNA)
DNA: CGTACGGAATTCGCTAGCGGGTTCGGGACGGATGAACGTGATAGCTGAGGATCCGAGCTCCACGTG
B5: binds [1].

B6: G39 (ssDNA)
DNA: CGTACGGAATTCGCTAGCGGTTGCCGTGCGGCGTGCGAGTTGGGCCTTGGATCCGAGCTCCACGTG
B6: binds [1].

B7: G55 (ssDNA)
DNA: CGTACGGAATTCGCTAGCGGACTGGAGTCTAGACCGGGTAGCTGTGGTGGATCCGAGCTCCACGTG
With B7 the Kd [2] was 71.7 nM.

B8: G35 (ssDNA)
DNA: CGTACGGAATTCGCTAGCGGTGACGGACGTGGGGTGCACGAAGGGAGGGGATCCGAGCTCCACGTG
In the case of B8, the Kd [3] is reported as 117 nM.

B9: G56 (ssDNA)
DNA: CGTACGGAATTCGCTAGCCCGTGGGGTAGCGGGGTCGTGTGATATGTGGATCCGAGCTCCACGTG
B9: binds [1].

B10: G40 (ssDNA)
DNA: CGTACGGAATTCGCTAGCCGGGGTGGGAACCAGTCTTGCGCGGGTGACGGATCCGAGCTCCACGTG
B10 was tested, and the Kd [3] was 114 nM.

B11: G37 (ssDNA)
DNA: CGTACGGAATTCGCTAGCGGGCGATGTGCGGAATGTGGGATTGCGGGTGGATCCGAGCTCCACGTG
B11: binds [1].

B12: G32 (ssDNA)
DNA: CGTACGGAATTCGCTAGCGTGGACTGGCGGAAATCTTGGTATGCCCATGGATCCGAGCTCCACGTG
B12: binds [1].

B13: G4 (ssDNA)
DNA: CGTACGGAATTCGCTAGCGTGATGTGGGGGTACGCTCGTGGCAGGCTTGGATCCGAGCTCCACGTG
B13: binds [1].

B14: G54 (ssDNA)
DNA: CGTACGGAATTCGCTAGCGTGGCGGGGCGCGGGTGCCGGAGTTGATGTGGATCCGAGCTCCACGTG
B14: binds [1].

B15: G27 (ssDNA)
DNA: CGTACGGAATTCGCTAGCGGGTGGAGTACGTGGGGGTCATCCTGTGTGGGATCCGAGCTCCACGTG
B15: binds [1].
